Measured values: patent publication US20160136234A1

Legend:
Experiment in all cases: cell-based or functional assay
[1] = target: Arg (h) (human) (UniProt P42684)
[2] = target: T1, Aurora-A (h) (human) (UniProt O14965)
T1 sequence (looked up): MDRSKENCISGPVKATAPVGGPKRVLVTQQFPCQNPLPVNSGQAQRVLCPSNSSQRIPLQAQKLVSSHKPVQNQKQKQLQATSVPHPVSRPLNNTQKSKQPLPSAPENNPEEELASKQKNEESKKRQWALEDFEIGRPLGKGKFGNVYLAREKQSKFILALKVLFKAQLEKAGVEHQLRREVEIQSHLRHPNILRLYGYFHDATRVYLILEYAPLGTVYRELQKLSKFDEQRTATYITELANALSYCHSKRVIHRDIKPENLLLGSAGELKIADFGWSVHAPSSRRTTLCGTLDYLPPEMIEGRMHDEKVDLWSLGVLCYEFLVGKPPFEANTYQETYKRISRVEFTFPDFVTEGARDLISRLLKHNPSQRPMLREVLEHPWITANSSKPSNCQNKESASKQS

[3] = target: T2, Axl (h) (human) (UniProt P30530)
T2 sequence (looked up): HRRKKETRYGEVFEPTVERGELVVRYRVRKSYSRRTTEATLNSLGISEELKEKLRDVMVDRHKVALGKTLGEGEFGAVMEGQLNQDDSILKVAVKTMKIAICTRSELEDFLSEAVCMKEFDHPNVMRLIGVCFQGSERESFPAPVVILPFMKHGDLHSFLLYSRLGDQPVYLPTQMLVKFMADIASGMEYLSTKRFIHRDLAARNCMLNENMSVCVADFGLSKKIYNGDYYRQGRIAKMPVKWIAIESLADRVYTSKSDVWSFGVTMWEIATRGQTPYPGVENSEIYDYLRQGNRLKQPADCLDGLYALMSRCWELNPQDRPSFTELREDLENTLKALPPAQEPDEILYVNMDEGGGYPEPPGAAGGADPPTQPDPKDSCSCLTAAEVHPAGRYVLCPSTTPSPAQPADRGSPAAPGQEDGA

[4] = target: Calcium/Calmodulin-Dependent Protein Kinase I (human) (UniProt Q14012)
[5] = target: T3, IKKα (h) (human) (UniProt O15111)
T3 sequence (looked up): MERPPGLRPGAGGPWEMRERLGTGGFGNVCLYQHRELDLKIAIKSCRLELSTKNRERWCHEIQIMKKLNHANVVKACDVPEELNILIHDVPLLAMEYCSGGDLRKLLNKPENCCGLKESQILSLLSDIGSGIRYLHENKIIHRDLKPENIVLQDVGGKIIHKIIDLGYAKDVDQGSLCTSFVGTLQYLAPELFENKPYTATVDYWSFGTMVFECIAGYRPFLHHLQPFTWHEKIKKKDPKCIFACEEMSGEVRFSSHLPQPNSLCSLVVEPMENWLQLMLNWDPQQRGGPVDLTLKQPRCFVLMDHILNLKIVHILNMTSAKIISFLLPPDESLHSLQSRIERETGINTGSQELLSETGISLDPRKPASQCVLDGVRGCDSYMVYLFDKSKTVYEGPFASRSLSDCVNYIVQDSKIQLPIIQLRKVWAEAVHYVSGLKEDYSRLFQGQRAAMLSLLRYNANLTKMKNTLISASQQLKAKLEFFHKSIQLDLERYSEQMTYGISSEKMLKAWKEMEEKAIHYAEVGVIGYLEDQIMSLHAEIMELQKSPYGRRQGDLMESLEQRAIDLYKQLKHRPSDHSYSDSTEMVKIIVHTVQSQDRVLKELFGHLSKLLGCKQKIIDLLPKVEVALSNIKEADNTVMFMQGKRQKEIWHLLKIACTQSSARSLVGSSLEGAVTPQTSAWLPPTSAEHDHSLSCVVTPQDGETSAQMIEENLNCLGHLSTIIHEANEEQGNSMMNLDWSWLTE

[6] = target: JNK2α2 (h) (human) (UniProt P45984)
[7] = target: Mnk2 (h) (human) (UniProt Q9HBH9)
[8] = target: T4, PDK1 (h) (human) (UniProt O15530)
T4 sequence (looked up): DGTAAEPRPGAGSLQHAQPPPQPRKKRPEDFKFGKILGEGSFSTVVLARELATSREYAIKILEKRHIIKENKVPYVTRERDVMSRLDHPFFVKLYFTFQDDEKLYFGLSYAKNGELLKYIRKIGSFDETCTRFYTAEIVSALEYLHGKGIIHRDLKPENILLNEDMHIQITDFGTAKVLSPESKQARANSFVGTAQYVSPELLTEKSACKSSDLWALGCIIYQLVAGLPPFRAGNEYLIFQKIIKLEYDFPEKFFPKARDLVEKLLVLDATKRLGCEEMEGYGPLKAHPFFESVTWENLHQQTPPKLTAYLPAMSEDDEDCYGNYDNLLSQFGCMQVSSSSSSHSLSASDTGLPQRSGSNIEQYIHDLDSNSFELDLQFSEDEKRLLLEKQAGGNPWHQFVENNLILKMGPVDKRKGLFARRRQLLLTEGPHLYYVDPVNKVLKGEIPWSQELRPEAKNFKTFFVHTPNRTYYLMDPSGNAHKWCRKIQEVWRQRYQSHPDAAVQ

[9] = target: PKCβII (h) (human) (UniProt P05771)
[10] = target: Pim-1 (h) (human) (UniProt P11309)
[11] = target: T5, Ret(V804M) (h) (human) (UniProt P07949)
T5 sequence (looked up): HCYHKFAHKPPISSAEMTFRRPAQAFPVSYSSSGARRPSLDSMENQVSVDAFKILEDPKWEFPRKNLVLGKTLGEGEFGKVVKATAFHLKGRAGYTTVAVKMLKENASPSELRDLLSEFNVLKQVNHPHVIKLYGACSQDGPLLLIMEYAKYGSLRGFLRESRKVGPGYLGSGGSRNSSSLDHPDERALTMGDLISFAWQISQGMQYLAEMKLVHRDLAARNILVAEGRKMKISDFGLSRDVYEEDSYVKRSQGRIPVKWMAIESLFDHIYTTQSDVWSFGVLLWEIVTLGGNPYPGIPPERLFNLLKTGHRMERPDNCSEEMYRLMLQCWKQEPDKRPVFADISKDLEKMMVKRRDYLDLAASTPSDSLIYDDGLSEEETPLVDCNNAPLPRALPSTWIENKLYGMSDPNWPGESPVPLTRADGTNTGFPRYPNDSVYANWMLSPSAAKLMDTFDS

[12] = target: cKit(D816H) (h) (human) (UniProt P10721)
cKit(D816H) (h) (human), sequence (P10721 544-976 D816H): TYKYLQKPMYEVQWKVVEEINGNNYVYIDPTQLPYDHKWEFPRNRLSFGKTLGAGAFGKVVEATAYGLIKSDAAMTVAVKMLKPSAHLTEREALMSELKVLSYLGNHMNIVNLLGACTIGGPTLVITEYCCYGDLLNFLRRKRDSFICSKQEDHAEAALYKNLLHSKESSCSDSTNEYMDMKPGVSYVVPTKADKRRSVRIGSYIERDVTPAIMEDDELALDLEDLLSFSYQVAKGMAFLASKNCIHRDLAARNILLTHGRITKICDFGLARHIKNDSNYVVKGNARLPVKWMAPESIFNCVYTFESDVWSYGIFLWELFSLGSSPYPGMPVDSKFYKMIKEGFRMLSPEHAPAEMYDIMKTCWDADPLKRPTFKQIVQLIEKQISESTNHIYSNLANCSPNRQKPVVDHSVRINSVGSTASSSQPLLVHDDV

Arg (h) (human), sequence (P42684 38-1182 limits assumed): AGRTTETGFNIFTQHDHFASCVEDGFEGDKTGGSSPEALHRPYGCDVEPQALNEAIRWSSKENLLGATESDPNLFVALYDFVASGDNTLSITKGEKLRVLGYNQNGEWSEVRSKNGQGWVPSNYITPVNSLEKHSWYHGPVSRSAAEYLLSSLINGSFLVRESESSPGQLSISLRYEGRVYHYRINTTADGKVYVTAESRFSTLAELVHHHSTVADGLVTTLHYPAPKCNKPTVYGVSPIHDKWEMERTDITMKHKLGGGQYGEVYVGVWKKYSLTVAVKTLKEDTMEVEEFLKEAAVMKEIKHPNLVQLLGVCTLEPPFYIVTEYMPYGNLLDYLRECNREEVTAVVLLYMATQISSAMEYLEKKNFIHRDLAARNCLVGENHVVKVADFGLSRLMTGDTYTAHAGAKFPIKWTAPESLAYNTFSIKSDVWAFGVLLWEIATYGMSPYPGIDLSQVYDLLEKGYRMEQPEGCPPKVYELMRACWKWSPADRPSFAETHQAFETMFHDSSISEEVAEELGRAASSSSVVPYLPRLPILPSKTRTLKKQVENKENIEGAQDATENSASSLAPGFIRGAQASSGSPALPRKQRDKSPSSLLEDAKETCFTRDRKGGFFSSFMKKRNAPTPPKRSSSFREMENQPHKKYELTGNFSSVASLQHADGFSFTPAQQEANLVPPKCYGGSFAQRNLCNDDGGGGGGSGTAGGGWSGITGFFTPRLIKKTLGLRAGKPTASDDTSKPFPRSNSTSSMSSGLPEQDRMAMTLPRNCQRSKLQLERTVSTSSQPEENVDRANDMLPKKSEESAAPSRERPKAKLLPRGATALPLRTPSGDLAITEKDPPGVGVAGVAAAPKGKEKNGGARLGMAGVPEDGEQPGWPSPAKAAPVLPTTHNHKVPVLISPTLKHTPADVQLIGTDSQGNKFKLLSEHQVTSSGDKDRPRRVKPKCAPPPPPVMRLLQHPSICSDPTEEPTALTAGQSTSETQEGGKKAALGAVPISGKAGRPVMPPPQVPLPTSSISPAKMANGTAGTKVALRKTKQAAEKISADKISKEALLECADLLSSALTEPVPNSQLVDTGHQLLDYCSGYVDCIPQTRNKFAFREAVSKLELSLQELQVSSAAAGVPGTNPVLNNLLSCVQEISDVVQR

MMI-0300 (peptide)
% activity at 100 µM [1]: 72% | % activity at 100 µM [2]: 92% | % activity at 100 µM [3]: 52% | % activity at 100 µM [4]: 1% | % activity at 100 µM [5]: 93% | % activity at 100 µM [6]: 98% | % activity at 100 µM [7]: 89% | % activity at 100 µM [8]: 135% | % activity at 100 µM [9]: 82% | % activity at 100 µM [10]: 8% | % activity at 100 µM [11]: 95% | % activity at 100 µM [12]: 126%
